According to US20110311499A1 (University of Washington, published 2011):

T1: Tse1-His6 (purified Tse1, PA1844, with C-terminal hexahistidine tag) (Pseudomonas aeruginosa PAO1, UniProt Q9I2Q1 1-154)
T1 construct: not shown: C-terminal hexahistidine tag (six His) from pET29b+
T1 sequence: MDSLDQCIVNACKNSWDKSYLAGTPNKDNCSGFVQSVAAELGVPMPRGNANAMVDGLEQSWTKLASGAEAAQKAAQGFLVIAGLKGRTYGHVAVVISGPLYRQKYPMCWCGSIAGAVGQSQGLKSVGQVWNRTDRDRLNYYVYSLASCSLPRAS

T2: Tse3-His6 (purified Tse3, PA3484, with C-terminal hexahistidine tag) (Pseudomonas aeruginosa PAO1, UniProt Q9HYC5 1-408)
T2 construct: not shown: C-terminal hexahistidine tag (six His) from pET29b+
T2 sequence: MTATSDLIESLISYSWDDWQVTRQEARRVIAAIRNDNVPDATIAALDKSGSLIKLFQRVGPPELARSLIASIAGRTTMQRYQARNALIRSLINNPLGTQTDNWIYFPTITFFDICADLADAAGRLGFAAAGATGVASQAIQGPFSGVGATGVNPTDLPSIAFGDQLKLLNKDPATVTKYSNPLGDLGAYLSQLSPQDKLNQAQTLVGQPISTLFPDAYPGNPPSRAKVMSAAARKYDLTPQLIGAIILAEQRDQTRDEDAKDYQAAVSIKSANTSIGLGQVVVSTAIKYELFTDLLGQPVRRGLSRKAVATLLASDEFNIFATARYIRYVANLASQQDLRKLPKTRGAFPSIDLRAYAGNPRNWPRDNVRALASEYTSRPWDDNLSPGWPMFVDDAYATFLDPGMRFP

B1: Tsi1-V (type VI secretion immunity protein 1 fused to the VSV-G epitope) (other)
chain: ADCTFTQLEIVPQFGSPNMFGGEDEHVRVMFSNEDPNDDNPDAFPEPPVYLADRDSGNDCRIEDGGIWSRGGVFLSQDGRRVLMHEFSGSSAELVSYDSATCKVVHREDISGQRWAVDKDGLRLGQKCSGESVDSCAKIVKRSLAPFCQTAKK
B2: Tsi3-V (type VI secretion immunity protein 3 fused to the VSV-G epitope) (other)
chain: CTAESGVDFDKTLTHPNGLVVERPVGFDARRSAEGFRFDEGGKLRNPRQLEVQRQDAPPPPDLASRRLGDGEARYKVEEDDGGSAGSEYRLWAAKPAGARWIVVSASEQSEDGEPTFALAWALLERARLQ

Assays:
[1] = target: T1, Tse1-His6 (purified Tse1, PA1844, with …); assay: co-immunoprecipitation (FIG. 17a)
[2] = target: T2, Tse3-His6 (purified Tse3, PA3484, with …); assay: co-immunoprecipitation (FIG. 17a)

Binder	binding result [1]	binding result [2]
B1	binds	–
B2	–	binds
